# Test results published in paper PMC2773002, “Differential Role of Human Choline Kinase α and β Enzymes in Lipid Metabolism: Implications in Cancer Onset and Treatment” (PLoS ONE, 2009).
# B1: ChoKβ (choline kinase beta, ChoKβ1) (Homo sapiens) (protein)
# chain: AAEATAVAGSGAVGGCLAKDGLQQSKCPDTTPKRRRASSLSRDAERRAYQWCREYLGGAWRRVQPEELRVYPVSGGLSNLLFRCSLPDHLPSVGEEPREVLLRLYGAILQGVDSLVLESVMFAILAERSLGPQLYGVFPEGRLEQYIPSRPLKTQELREPVLSAAIATKMAQFHGMEMPFTKEPHWLFGTMERYLKQIQDLPPTGLPEMNLLEMYSLKDEMGNLRKLLESTPSPVVFCHNDIQEGNILLLSEPENADSLMLVDFEYSSYNYRGFDIGNHFCEWVYDYTHEEWPFYKARPTDYPTQEQQLHFIRHYLAEAKKGETLSQEEQRKLEEDLLVEVSRYALASHFFWGLWSILQASMSTIEFGYLDYAQSRFQFYFQQKGQLTSVHSSS
# notes: human ChoKβ1 expressed in E. coli DH5α (extracts)
# Tests used:
# [1] = substrate: C[N+](C)(C)CCO; experiment: Michaelis-Menten kinetics (Km), radiolabelled substrate, extracts of E. coli expressing the recombinant enzyme; format: biochemical, Homo sapiens; conditions: ATP, MgCl2
# [2] = substrate: NCCO; experiment: as above; format: biochemical, Homo sapiens; conditions: ATP, MgCl2
protein,measurement,setting,value
B1,Km,[1],570 µM
same,Km,[2],2010 µM
